± gives the standard deviation of the averaged measurements.
Assay: total protein half-life in vivo (active degradation + dilution); higher = more stable protein
[1] = wild type E. coli NCM3722, growth: N-lim chemostat, doubling time 6 h
[2] = wild type E. coli NCM3722, growth: P-lim chemostat, doubling time 12 h
[3] = E. coli NCM3722 delta-clpP, growth: N-lim chemostat, doubling time 6 h
[4] = E. coli NCM3722 delta-hslV, growth: N-lim chemostat, doubling time 6 h
[5] = E. coli NCM3722 delta-lon, growth: N-lim chemostat, doubling time 6 h
[6] = E. coli NCM3722 delta-smpB, growth: N-lim chemostat, doubling time 6 h
[7] = wild type E. coli NCM3722, growth: C-lim chemostat, doubling time 6 h
[8] = wild type E. coli NCM3722, growth: C-lim chemostat, doubling time 12 h
[9] = wild type E. coli NCM3722, growth: N-lim chemostat, doubling time 12 h
[10] = wild type E. coli NCM3722, growth: P-lim chemostat, doubling time 6 h
[11] = E. coli NCM3722 delta-clpP delta-lon delta-hslV, growth: N-lim chemostat, doubling time 6 h
[12] = wild type E. coli NCM3722, growth: C-lim chemostat, doubling time 3 h

Sequence	total protein half-life in vivo [1] [h]	total protein half-life in vivo [2] [h]	total protein half-life in vivo [3] [h]	total protein half-life in vivo [4] [h]	total protein half-life in vivo [5] [h]	total protein half-life in vivo [6] [h]	total protein half-life in vivo [7] [h]	total protein half-life in vivo [8] [h]	total protein half-life in vivo [9] [h]	total protein half-life in vivo [10] [h]	total protein half-life in vivo [11] [h]	total protein half-life in vivo [12] [h]
MAFVSEREIVRKIFSKKIDFTILAFFYISSIFFLLCSGVLFQYFTAAFTKGNCYECSMKLDYIKQFYFSLETAWYLISAVAVFIASVFIQHRIKAYLTLLAITWIVLTITDVALIHALDNIAMNNILLNILYNLFGAILLSLFMCLSNSLLFHLNKIKHIPMILSAMIPLVSAIIIAILITAVIYLLFARQAVEIEMDISEGSDIAYVGVKDNEESFGFLNDKKTDTPTYLDVIKNGSLIYNDTQGLSGADIYIVSGCYALPDLLRNVPLDAKKSFLNVKKLEITQKLPMMGFIQGESADVMPKAASRLSLSKQDDKFMLASSVTDSQIKFKSNNAQLMVAFAFMPITTNGILHDYTYDIIINDKKYKIENHVAPLSRLDKNKKMKCEYQQISDLTNTYNINANYLTGFLLVLKPDDIINYNNSPSVLLKTDFAFYKKTYQKLDKIYDDISNGKLSSLRATGISQFSINGKHLSLRPESEIIISEGSLYGLVNKSKKIKIYGTADLVFVDNKIMNLRKITYLQSKLEIFGSSIMDILKYIFGLGLLAISIKFIHSYFKNDVNENLFL	2.06	2.3 ± 0.71	–	–	–	–	–	–	–	–	–	–
MKLYIYDHCPYCLKARMIFGLKNIPVELHVLLNDDAETPTRMVGQKQVPILQKDDSRYMPESMDIVHYVDKLDGKPLLTGKRSPAIEEWLRKVNGYANKLLLPRFAKSAFDEFSTPAARKYFVDKKEASAGNFADLLAHSDGLIKNISDDLRALDKLIVKPNAVNGELSEDDIQLFPLLRNLTLVAGINWPSRVADYRDNMAKQTQINLLSSMAI [P0AC59]	5.02 ± 0.15	11.9 ± 0.21	5.06 ± 0.73	5.49 ± 0.35	5.77 ± 0.24	5.01 ± 0.41	5.57 ± 0.23	11.7 ± 1.8	9.43 ± 0.3	5.33 ± 0.55	–	–
MLSAFQLENNRLTRLEVEESQPLVNAVWIDLVEPDDDERLRVQSELGQSLATRPELEDIEASARFFEDDDGLHIHSFFFFEDAEDHAGNSTVAFTIRDGRLFTLRERELPAFRLYRMRARSQSMVDGNAYELLLDLFETKIEQLADEIENIYSDLEQLSRVIMEGHQGDEYDEALSTLAELEDIGWKVRLCLMDTQRALNFLVRKARLPGGQLEQAREILRDIESLLPHNESLFQKVNFLMQAAMGFINIEQNRIIKIFSVVSVVFLPPTLVASSYGMNFEFMPELKWSFGYPGAIIFMILAGLAPYLYFKRKNWL [P0ABI4]	6.07 ± 0.69	12.6 ± 0.23	6.305 ± 0.044	5.99 ± 0.58	–	6.4 ± 0.16	6.15 ± 0.071	11.8 ± 0.14	11.7 ± 2	5.62 ± 0.18	5.99 ± 0.074	3 ± 0.35
MAFKIWQIGLHLQQQEAVAVAIVRGAKECFLQRWWRLPLENDIIKDGRIVDAQQLAKTLLPWSRELPQRHHIMLAFPASRTLQRSFPRPSMSLGEREQTAWLSGTMARELDMDPDSLRFDYSEDSLSPAYNVTAAQSKELATLLTLAERLRVHVSAITPDASALQRFLPFLPSHQQCLAWRDNEQWLWATRYSWGRKLAVGMTSAKELAAALSVDPESVAICGEGGFDPWEAVSVRQPPLPPPGGDFAIALGLALGKAY	–	8.02	3.81	2.84	–	2.82 ± 0.24	–	11.7 ± 1.8	–	3.857 ± 0.0092	4.83	–
MFQQQKDWETRENAFAAFTMGPLTDFWRQRDEAEFTGVDDIPVRFVRFRAQHHDRVVVICPGRIESYVKYAELAYDLFHLGFDVLIIDHRGQGRSGRLLADPHLGHVNRFNDYVDDLAAFWQQEVQPGPWRKRYILAHSMGGAISTLFLQRHPGVCDAIALTAPMFGIVIRMPSFMARQILNWAEAHPRFRDGYAIGTGRWRALPFAINVLTHSRQRYRRNLRFYADDPTIRVGGPTYHWVRESILAGEQVLAGAGDDATPTLLLQAEEERVVDNRMHDRFCELRTAAGHPVEGGRPLVIKGAYHEILFEKDAMRSVALHAIVDFFNRHNSPSGNRSTEV	4.42 ± 0.28	10.8 ± 0.91	> 8	4.87 ± 0.73	4.93 ± 0.22	4.57 ± 0.31	6.52 ± 0.38	11.3 ± 1.8	8.56 ± 0.72	6.17 ± 0.69	5.43 ± 1.2	3.13 ± 0.43
MTTKRKPYVRPMTSTWWKKLPFYRFYMLREGTAVPAVWFSIELIFGLFALKNGPEAWAGFVDFLQNPVIVIINLITLAAALLHTKTWFELAPKAANIIVKDEKMGPEPIIKSLWAVTVVATIVILFVALYW [P0A8Q0]	5.63 ± 0.14	12.5 ± 0.33	–	5.78 ± 0.49	6.06 ± 0.09	6.13 ± 0.39	5.55 ± 0.079	10.9 ± 0.46	11.3 ± 1.9	5.09 ± 0.12	5.7 ± 0.4	2.81 ± 0.031
MTDKMQSLALAPVGNLDSYIRAANAWPMLSADEERALAEKLHYHGDLEAAKTLILSHLRFVVHIARNYAGYGLPQADLIQEGNIGLMKAVRRFNPEVGVRLVSFAVHWIKAEIHEYVLRNWRIVKVATTKAQRKLFFNLRKTKQRLGWFNQDEVEMVARELGVTSKDVREMESRMAAQDMTFDLSSDDDSDSQPMAPVLYLQDKSSNFADGIEDDNWEEQAANRLTDAMQGLDERSQDIIRARWLDEDNKSTLQELADRYGVSAERVRQLEKNAMKKLRAAIEA [P0AGB3]	–	0.858	–	–	–	–	–	–	–	–	0.775 ± 0.044	–

Source: the supplement of paper PMC11246515
